# “Also recorded” adds a separate entry of the source.
# B1: EA2: EphA2 agonistic monoclonal antibody; hybridoma strain EA2.31, ATCC PTA-4380 (antibody, V domains shown)
# VH: DVKLVESGGGLVKPGGSLKLSCAASGFTFSSYTMSWVRQTPEKRLEWVATISSGGTYTYYPDSVKGRFTISRDNAKNTLYLQMSSLKSEDTAMYYCTREAIFTYWGQGTLVTVSA
# VL: DIKMTQSPSSMYASLGERVTITCKASQDINNYLSWFQQKPGKSPKTLIYRANRLVDGVPSRFSGSGSGQDYSLTISSLEYEDMGIYYCLKYDEFPYTFGGGTKLEIK
# Tests used:
# [1] = molecular target: T1, EphA2-Fc (Homo sapiens, UniProt P29317); assay: Competitive ELISA: inhibition of labeled EA2 binding to EphA2-Fc; details: unlabeled antibody, increasing concentrations; FIG. 1
# T1 construct: consisted of the extracellular domain of human EphA2 linked to human immunoglobulin
# Method: The ability of labeled EA2 monoclonal antibody to bind EphA2-Fc was assayed by competitive ELISA in presence of either unlabeled monoclonal antibodies EA2 or Eph099B-208.261. Ratios of unlabeled to labeled antibody used in the assay are indicated on the x-axis.
# Supernatants from bulk culture hybridomas were screened for immunoreactivity against EphA2 (Table 9, column 4) using standard molecular biological techniques (e.g., ELISA immunoassay). Supernatants were further screened for the ability to inhibit an EphA2 monoclonal antibody (EA2; ATCC deposit no. PTA-4380; see co-pending U.S. patent application Ser. No. 10/436,783, entitled “EphA2 Agonistic Monoclonal Antibodies and Methods of Use Thereof” filed May 12, 2003) from binding to EphA2. […] Additionally, many of the other antibodies could inhibit EA2 binding to EphA2 as well (Table 9, column 3).
# [2] = molecular target: EphA2 (Homo sapiens, UniProt P29317); assay: EphA2 expression in MCF-7^EphA2 cells after EA2 treatment (Western blot); type: cell-based
# Method: MCF-7^EPhA2 cells were incubated in the presence of 3 μg/ml of EA2 for the time indicated prior to sample extraction and Western blot analyses with an EphA2-specific antibody (D7).
# Estrogen-sensitive breast cancer cells, MCF-7 cells, were transfected with and stably overexpressed human EphA2 (MCF-7^EphA2) (pNeoMSV-EphA2 provided by Dr. T. Hunter, Scripps Institute). Western blot analyses confirmed the ectopic overexpression of EphA2 in transfected cells relative to matched controls (data not shown).
# (§1) Growth MCF-7^EphA2 cells which had decreased EphA2 expression levels was assayed in soft agar.
# [3] = system: MCF-7^EphA2 cells; assay: Soft agar colonization of MCF-7^EphA2 cells; type: cell-based; details: TAM 1 μM, EA2 10 μg/ml
# Method: (B) MCF-7 (circles) or MCF-7^EphA2 cells (squares) were implanted into the mammary fatpad (n=15 mice per group) in the presence of supplemental estrogen.
# MCF-7^EPhA2 cells were incubated in the presence of 3 μg/ml of EA2 for the time indicated prior to sample extraction and Western blot analyses with an EphA2-specific antibody (D7). (B) The membrane was stripped and re-probed with a β-catenin-specific antibody as a loading control.
# Growth assays were conducted as follows. MCF-7^neo (control cells) or MCF7^EphA2 cells were seeded in 96-well plates. […] Colony formation in soft agar was performed as previously described (Zelinski et al., 2001, Cancer Res. 61: 2301-6) and scored microscopically, defining clusters of at least three cells as a positive. The data represent the average of ten separate high-power microscopic fields from each sample and representative of at least three separate experiments. Error bars represent the standard error of the mean of at least three different experiments as determined using Microsoft Excel software.
# as §1
# [4] = molecular target: T2, EphA2-Ephrin A1-Fc-EA2 complex (Homo sapiens, UniProt P29317); assay: Displacement of biotinylated EA2 from EphA2-Ephrin A1-Fc complex by unlabeled competitor; type: binding; details: biotinylated EA2 10 μg/ml; FIG. 18B
# T2 construct: consisting of the extracellular domain of EphA2 linked to human IgG1 constant region (EphA2-Fc)
# Method: (A) EphA2-Fc was incubated with and bound to immobilized Ephrin A1-Fc. Labeled Ephrin A1-Fc (black), EA2 (white) or Eph099B-233.152 (grey) was incubated with the EphA2-Ephrin A1-Fc complex and amount of binding was measured. (B) EphA2-Fc was incubated with and bound to immobilized Ephrin A1-Fc. Labeled EA2 was then incubated with the EphA2-Ephrin A1 complex. Unlabeled competitor was incubated with EphA2-Ephrin A1-EA2 complex in the indicated amount. Competitors were Ephrin A1-Fc (black), EA2 (white) or Eph099B-233.152 (grey).
# The EphA2-Ephrin A1-Fc complex was prepared as described above. Biotinylated EA2 (10 μg/ml) was then incubated with the complex for 30 min. Unlabeled competitor was incubated with EphA2-Ephrin A1-Fc-EA2 complex in the indicated amount. Unlabeled EA2 could displace the labeled EA2 at concentrations of 100 ng/ml or greater.
# [5] = system: MDA-MB-231 breast cancer cells; assay: Tumor growth, MDA-MB-231 cells implanted orthotopically into athymic mice; type: in vivo; details: 6 mg/kg i.p. twice a week for 3 weeks; FIG. 7A
# Method: Total tumor volume was determined after sacrifice.
# Chain of EphA2 (P29317 24-976): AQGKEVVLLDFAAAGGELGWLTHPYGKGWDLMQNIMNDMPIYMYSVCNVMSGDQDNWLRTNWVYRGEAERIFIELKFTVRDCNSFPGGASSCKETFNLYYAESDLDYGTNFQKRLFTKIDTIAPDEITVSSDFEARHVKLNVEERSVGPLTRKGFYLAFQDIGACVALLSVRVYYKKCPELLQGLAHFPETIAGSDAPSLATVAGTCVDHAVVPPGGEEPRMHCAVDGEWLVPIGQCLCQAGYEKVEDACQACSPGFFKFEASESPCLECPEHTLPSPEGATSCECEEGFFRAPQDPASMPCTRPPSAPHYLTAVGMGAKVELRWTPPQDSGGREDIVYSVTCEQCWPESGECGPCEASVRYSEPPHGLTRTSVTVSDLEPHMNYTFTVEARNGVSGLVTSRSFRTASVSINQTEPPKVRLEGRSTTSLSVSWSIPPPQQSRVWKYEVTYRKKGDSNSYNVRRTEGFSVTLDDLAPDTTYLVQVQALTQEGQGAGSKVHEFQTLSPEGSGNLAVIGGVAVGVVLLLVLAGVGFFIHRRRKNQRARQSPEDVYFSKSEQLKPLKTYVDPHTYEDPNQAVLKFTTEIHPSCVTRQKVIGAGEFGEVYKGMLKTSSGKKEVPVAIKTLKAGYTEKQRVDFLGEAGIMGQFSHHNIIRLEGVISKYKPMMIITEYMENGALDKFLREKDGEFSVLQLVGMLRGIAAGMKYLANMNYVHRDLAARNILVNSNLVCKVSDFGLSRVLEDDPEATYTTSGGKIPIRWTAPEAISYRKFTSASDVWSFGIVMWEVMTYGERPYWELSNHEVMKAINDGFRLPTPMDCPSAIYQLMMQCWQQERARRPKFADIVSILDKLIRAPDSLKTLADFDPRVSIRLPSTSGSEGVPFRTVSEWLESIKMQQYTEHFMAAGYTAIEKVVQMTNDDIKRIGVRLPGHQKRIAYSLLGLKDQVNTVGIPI
# T1 sequence (P29317 24-537 limits assumed): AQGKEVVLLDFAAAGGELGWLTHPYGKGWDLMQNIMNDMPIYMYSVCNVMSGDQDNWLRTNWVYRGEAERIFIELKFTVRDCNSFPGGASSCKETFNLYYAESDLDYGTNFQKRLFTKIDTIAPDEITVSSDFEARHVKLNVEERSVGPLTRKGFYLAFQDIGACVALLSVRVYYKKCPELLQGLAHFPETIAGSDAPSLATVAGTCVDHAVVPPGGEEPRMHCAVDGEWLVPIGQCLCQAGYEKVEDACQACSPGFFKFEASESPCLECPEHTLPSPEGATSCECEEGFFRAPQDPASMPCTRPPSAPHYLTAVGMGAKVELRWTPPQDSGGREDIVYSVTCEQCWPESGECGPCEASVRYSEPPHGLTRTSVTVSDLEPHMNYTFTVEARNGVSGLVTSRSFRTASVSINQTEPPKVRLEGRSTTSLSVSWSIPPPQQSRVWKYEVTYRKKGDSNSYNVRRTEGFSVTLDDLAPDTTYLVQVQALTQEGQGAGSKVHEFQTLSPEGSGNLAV
# T2 sequence (P29317 24-537 limits assumed): as above
# T2 sequence (P20827 19-182 partner limits assumed): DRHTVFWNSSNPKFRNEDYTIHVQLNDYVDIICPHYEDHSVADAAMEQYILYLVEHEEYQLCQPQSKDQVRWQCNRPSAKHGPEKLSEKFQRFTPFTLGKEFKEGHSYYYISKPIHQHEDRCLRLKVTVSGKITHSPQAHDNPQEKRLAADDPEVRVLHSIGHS
molecule,measurement,setting,value
B1,Competition with labeled EA2 for binding to EphA2-Fc,[1],could decrease the amount of labeled EA2 binding to EphA2-Fc
same,Time EphA2 remained undetectable after EA2 treatment,[2]; 3 μg/ml EA2,≥ 24 h
same,EphA2 activation and expression level after EA2 treatment,"[2]; 3 μg/ml EA2, FIG. 13A",induced EphA2 activation and subsequent degradation; also recorded: Decreased levels of EphA2 expression were observed within two hours
same,"Soft agar colonization response / tamoxifen sensitivity, MCF-7^EphA2 cells","[3]; 1 μM 17β-estradiol, FIGS. 11A, 13C (11A also MCF-7)",restored a phenotype that was comparable to control MCF-7 cells; also recorded: decreases malignant growth; also recorded: increased the sensitivity of MCF-7^EphA2 cells to tamoxifen
same,"Inhibition / decrease of soft agar colonization, MCF-7^EphA2 cells",[3]; 14 days,19%
same,Concentration of unlabeled competitor displacing labeled EA2,[4],≥ 100 ng/mL
same,"Tumor growth, MDA-MB-231 implanted orthotopically",[5],inhibited

# Reference: patent US20050153923A1, “Targeted drug delivery using EphA2 or EphA4 binding moieties” (priority 2003, published 2005)
